Tests used:
Conditions in all cases: remark: other sources report otherwise
[1] = molecular target: SARS-CoV-2 RBD (B.1.1.7) domain (SARS-CoV-2); assay: ELISA; design: unit not given beside the values
[2] = molecular target: SARS-CoV-2 RBD (B.1.351) domain (SARS-CoV-2); assay: ELISA; design: unit not given beside the values
[3] = molecular target: SARS-CoV-2 RBD (P.1) domain (SARS-CoV-2); assay: ELISA; design: unit not given beside the values
[4] = molecular target: T1, SARS-CoV-2 Spike ectodomain (tri-S), Wuhan (SARS-CoV-2), P0DTC2; assay: ELISA; design: unit not given beside the values
[5] = molecular target: SARS-CoV-2 RBD (B.1.1.7) domain (SARS-CoV-2); assay: RBD/ACE2 blocking ELISA
[6] = molecular target: SARS-CoV-2 RBD (B.1.351) domain (SARS-CoV-2); assay: RBD/ACE2 blocking ELISA
[7] = molecular target: SARS-CoV-2 RBD (P.1) domain (SARS-CoV-2); assay: RBD/ACE2 blocking ELISA
[8] = molecular target: T1, SARS-CoV-2 Spike ectodomain (tri-S), …; assay: tri-S/ACE2 blocking ELISA
[9] = molecular target: SARS-CoV-2 RBD (B.1.1.7) domain (SARS-CoV-2); assay: ELISA; design: unit not given beside the values; remark: listed apart in the source
[10] = molecular target: SARS-CoV-2 RBD (B.1.351) domain (SARS-CoV-2); assay: ELISA; design: unit not given beside the values; remark: listed apart in the source
[11] = molecular target: SARS-CoV-2 RBD (P.1) domain (SARS-CoV-2); assay: ELISA; design: unit not given beside the values; remark: listed apart in the source
[12] = molecular target: T1, SARS-CoV-2 Spike ectodomain (tri-S), …; assay: tri-S capture ELISA
[13] = molecular target: T1, SARS-CoV-2 Spike ectodomain (tri-S), …; assay: ELISA, coated antigen
[14] = molecular target: T1, SARS-CoV-2 Spike ectodomain (tri-S), …; assay: SPR (Biacore), antibody immobilised
[15] = molecular target: SARS-CoV-2 RBD (B.1.1.7) domain (SARS-CoV-2); assay: RBD-ACE2 competition ELISA; design: unit not given beside the values
[16] = molecular target: SARS-CoV-2 RBD (B.1.351) domain (SARS-CoV-2); assay: RBD-ACE2 competition ELISA; design: unit not given beside the values
[17] = molecular target: SARS-CoV-2 RBD (P.1) domain (SARS-CoV-2); assay: RBD-ACE2 competition ELISA; design: unit not given beside the values
[18] = molecular target: SARS-CoV-2 RBD (B.1.1.7) domain (SARS-CoV-2); assay: RBD-ACE2 competition ELISA; design: unit not given beside the values; remark: listed apart in the source
[19] = molecular target: SARS-CoV-2 RBD (B.1.351) domain (SARS-CoV-2); assay: RBD-ACE2 competition ELISA; design: unit not given beside the values; remark: listed apart in the source
[20] = molecular target: SARS-CoV-2 RBD (P.1) domain (SARS-CoV-2); assay: RBD-ACE2 competition ELISA; design: unit not given beside the values; remark: listed apart in the source
[21] = molecular target: T1, SARS-CoV-2 Spike ectodomain (tri-S), …; assay: competition ELISA vs bio-Cv2.1169
[22] = molecular target: T1, SARS-CoV-2 Spike ectodomain (tri-S), …; assay: competition ELISA vs bio-Cv2.1353
[23] = molecular target: T1, SARS-CoV-2 Spike ectodomain (tri-S), …; assay: competition ELISA vs bio-Cv2.3194
[24] = molecular target: T1, SARS-CoV-2 Spike ectodomain (tri-S), …; assay: competition ELISA vs bio-Cv2.3235
[25] = molecular target: T1, SARS-CoV-2 Spike ectodomain (tri-S), …; assay: competition ELISA vs bio-Cv2.5213
[26] = molecular target: T1, SARS-CoV-2 Spike ectodomain (tri-S), …; assay: tri-S/ACE2 blocking ELISA [B]
[27] = molecular target: T1, SARS-CoV-2 Spike ectodomain (tri-S), …; assay: competition ELISA, spike protein binding to ACE2 ectodomain
[28] = molecular target: T1, SARS-CoV-2 Spike ectodomain (tri-S), …; assay: biotinylated tri-S on immobilised ACE2, competition ELISA
[29] = molecular target: SARS-CoV-2 RBD (P.1) domain (SARS-CoV-2); assay: ELISA

Binder | AUC (RBD bind.) [9] | AUC [10] | AUC (RBD bind.) [10] | AUC (RBD bind.) [11] | triS Capt-ELISA [12] | ELISA OD [13] [OD] | triS ELISA (AUC) [13] [AUC] | Kd [14] [nM] | AUC (RBD block.) [15] | AUC (RBD block.) [16] | AUC (RBD block.) [17] | AUC (RBD block.) [18] | AUC (RBD block.) [19] | AUC (RBD block.) [20] | % inhibition (competition) [21] | % inhibition (competition) [22] | % inhibition (competition) [23] | % inhibition (competition) [24] | % inhibition (competition) [25] | AUC of blocking [26] | further results
ADG-2 (antibody, V domains shown) VH: EVQLVESGGGLVKPGGSLRLSCAASGFTFSSYYMNWVRQAPGKGLEWVSSISEDGYSTYYPDSLKGRFTISRDSAKNSLYLQMNSLRADDTAVYYCARDFSGHTAWAGTGFEYWGQGTLVTVSS VL: QSVLTQPPSVSGAPGQRITISCTGSSSNIGAGYDVHWYQQLPGTAPKLLIYGSSSRNSGVPDRFSGSKSGTSASLAITGLQAEDEADYYCQSYDSSLSVLYTFGTGTKVTVL | – | – | – | – | – | – | – | – | – | – | – | – | – | – | – | – | – | – | – | – | AUC [1]: 3; AUC [2]: 3; AUC [3]: 3; AUC [4]: 3; % binding inhibition [5]: 92%; % binding inhibition [6]: 95%; % binding inhibition [7]: 89%; % binding inhibition [8]: 96%
COV2-2130 (antibody, V domains shown) VH: EVQLVESGGGLVKPGGSLRLSCAASGFTFRDVWMSWVRQAPGKGLEWVGRIKSKIDGGTTDYAAPVKGRFTISRDDSKNTLYLQMNSLKTEDTAVYYCTTAGSYYYDTVGPGLPEGKFDYWGQGTLVTVSS VL: not shown | – | – | – | – | – | – | – | – | – | – | – | – | – | – | – | – | – | – | – | – | AUC [1]: 3; AUC [2]: 3; AUC [3]: 3; % binding inhibition [5]: 85%; % binding inhibition [6]: 96%; % binding inhibition [7]: 90%
Cv2.1353 (recombinant human IgG1) (antibody) heavy: EVQLVESGGGLVQPGGSLRLSCAASGVTVSSNYMNWVRQAPGKGLEWVSVIYSGGSTFYADSVKGRFIISRDNSKNTLYLQMNSLKTEDTAVYYCARDLGPMGFDIWGQGTMVTVSSASTKGPSVFPLAPSSKSTSGGTAALGCLVKDYFPEPVTVSWNSGALTSGVHTFPAVLQSSGLYSLSSVVTVPSSSLGTQTYICNVNHKPSNTKVDKKVEPKSCDKTHTCPPCPAPELLGGPSVFLFPPKPKDTLMISRTPEVTCVVVDVSHEDPEVKFNWYVDGVEVHNAKTKPREEQYNSTYRVVSVLTVLHQDWLNGKEYKCKVSNKALPAPIEKTISKAKQPREPQVYTLPPSRDELTKNQVSLTCLVKGFYPSDIAVEWESNGQPENNYKTTPPVLDSDGSFFLYSKLTVDKSRWQQGNVFSCSVMHEALHNHYTQKSLSLSPGK light: DIQMTQSPSFLSASVGDRVTITCRASQGISSYLAWYQQKPGKAPKLLIYAASTLQSGVPSRFSGSGSGTEFTLTISSLQPEDFATYYCQQLNSDPPVTFGPGTKVDIKRTVAAPSVFIFPPSDEQLKSGTASVVCLLNNFYPREAKVQWKVDNALQSGNSQESVTEQDSKDSTYSLSSTLTLSKADYEKHKVYACEVTHQGLSSPVTKSFNRGEC | 12 | 13 | 12 | 13 | 2.2 | 3.5 | 14 | 2.22 | 203 | 62 | 66 | 102 | 31 | 33 | 86 | 88 | 88 | 97 | 90 | 156 | ACE2 Block (%) [27]: 92%; EC50 [28]: 0.26 µg/mL
Cv2.5213 (recombinant human IgG1) (antibody) heavy: EVQLVESGGGLIQPGGSLRLSCAASGFTVSSNYMSWVRQAPGKGLEWVSLIYSGGSTYYADSVKGRFTISRDNSKNTLYLQMNSLRAEDTAVYYCARDLNYYGMDVWGQGATVTVSSASTKGPSVFPLAPSSKSTSGGTAALGCLVKDYFPEPVTVSWNSGALTSGVHTFPAVLQSSGLYSLSSVVTVPSSSLGTQTYICNVNHKPSNTKVDKKVEPKSCDKTHTCPPCPAPELLGGPSVFLFPPKPKDTLMISRTPEVTCVVVDVSHEDPEVKFNWYVDGVEVHNAKTKPREEQYNSTYRVVSVLTVLHQDWLNGKEYKCKVSNKALPAPIEKTISKAKQPREPQVYTLPPSRDELTKNQVSLTCLVKGFYPSDIAVEWESNGQPENNYKTTPPVLDSDGSFFLYSKLTVDKSRWQQGNVFSCSVMHEALHNHYTQKSLSLSPGK light: not shown | 13 | 1 | 2 | 9 | 2.1 | 3.8 | 14.2 | 6.54 | 45 | 18 | 9 | 22 | 9 | 4 | 81 | 84 | 81 | 98 | 90 | 181 | EC50 (read off the curve) [29]: 0.07 µg/mL; ACE2 Block (%) [27]: 90%; EC50 [28]: 0.22 µg/mL
Cv2.3235 (recombinant human IgG1) (antibody) heavy: EVQLVESGGGLIQPGGSLRLSCAASGFTVSRNYMSWVRQAPGKGLEWVSVIYSGGSTFYADSVKGRFTISRDNSKNTLYLQMNSLRAEDTAVYYCARDGDYYGMDVWGQGTTVTVSSASTKGPSVFPLAPSSKSTSGGTAALGCLVKDYFPEPVTVSWNSGALTSGVHTFPAVLQSSGLYSLSSVVTVPSSSLGTQTYICNVNHKPSNTKVDKKVEPKSCDKTHTCPPCPAPELLGGPSVFLFPPKPKDTLMISRTPEVTCVVVDVSHEDPEVKFNWYVDGVEVHNAKTKPREEQYNSTYRVVSVLTVLHQDWLNGKEYKCKVSNKALPAPIEKTISKAKQPREPQVYTLPPSRDELTKNQVSLTCLVKGFYPSDIAVEWESNGQPENNYKTTPPVLDSDGSFFLYSKLTVDKSRWQQGNVFSCSVMHEALHNHYTQKSLSLSPGK light: DIQMTQSPSFLSASVGDRVTITCRASQGISSFLAWYQQKPGKAPKLLIYGASTLQSGVTSRFSGSGSGTEFTLTISSLQPEDFATYYCQRLDSYPPITFGQGTRLEIKRTVAAPSVFIFPPSDEQLKSGTASVVCLLNNFYPREAKVQWKVDNALQSGNSQESVTEQDSKDSTYSLSSTLTLSKADYEKHKVYACEVTHQGLSSPVTKSFNRGEC | 13 | 1 | 1 | 2 | 1 | 3.6 | 13.2 | 5.37 | 30 | 25 | 4 | 15 | 13 | 2 | 34 | 56 | 60 | 93 | 67 | 164 | ACE2 Block (%) [27]: 78%; EC50 [28]: 0.47 µg/mL

Reference: patent publication US20240336672A1
